Substitutions are numbered along the chain they refer to. Names and notes keep the numbering of the source.
B1: humanized B-F5 H37L/L4L (antibody, V domains shown)
VH: EEQLVESGGGLVKPGGSLRLSCAASGFSFSDCRMYWLRQAPGKGLEWIGVISVKSENYGANYAESVRGRFTISRDDSKNTVYLQMNSLKTEDTAVYYCSASYYRYDVGAWFAYWGQGTLVTVSS
VL: DIVLTQSPDSLAVSLGERATINCRASKSVSTSGYSYIYWYQQKPGQPPKLLIYLASILESGVPDRFSGSGSGTDFTLTISSLQAEDVAVYYCQHSRELPWTFGQGTKVEIK
notes: expressed in Sp2/0, purified on protein A; also called H37L/L4L IgG1; hB-F5
B2: humanized B-F5 H37V/L4L (antibody, V domains shown)
VH: B1 VH with L37V
VL: B1 VL
notes: also called hB-F5
B3: humanized B-F5 H37V/L4M (antibody, V domains shown)
VH: B1 VH with L37V
VL: B1 VL with L4M
notes: also called hB-F5
B4: humanized B-F5 H37L/L4M IgG1 (BT061) (antibody, V domains shown)
VH: B1 VH
VL: B1 VL with L4M
notes: also called hB-F5; humanised B-F5

Molecular target: T1, soluble CD4 (human, UniProt P01730 26-396, limits assumed)
T1 construct: The assay paragraph says only 'soluble CD4'
Assay: competitive ELISA, inhibition of biotinylated mB-F5 binding to coated soluble CD4, 37 °C 2 hours
Method: Culture supernatants of transfectomas producing the four versions of hB-F5 were collected, and concentrated. The different antibodies were purified from culture supernatants by affinity chromatography using protein A Sepharose and assessed for their CD4 binding activity by measuring, by means of competitive ELISA, their inhibitory activities against the binding of biotinylated mB-F5 to soluble CD4 coated on microtiter plates. Incubation, time is 2 hours for 37° C. and overnight for 4° C.

| Binder | Relative binding activity (% of mB-F5) |
| --- | --- |
| B1 | 30 % of mB-F5 |
| B2 | 10 % of mB-F5 |
| B3 | 10 % of mB-F5 |
| B4 | 30 % of mB-F5 |

Source: US20110059082A1 (BIOTEST, published 2011)
